{
  "source": "patent US20220267438A1",
  "about": "(Janssen / Centocor, published 2022)",
  "binders": {"B1": {"name": "GC5B680 (parental anti-GPRC5D binder, tested as Fab) (Fab, V domains shown)", "VH": "QVTLKESGPVLVKPTETLTLTCTVSGFSLTNIRMSVSWIRQPPGKALEWLAHIFSNDEKSYSTSLKSRLTISRDTSKSQVVLTLTNVDPVDTATYYCARMRLPYGMDVWGQGTTVTVSS", "VL": "not shown", "notes": "Tested 'as Fab'; also called GPRC5d lead"}, "B2": {"name": "GCDB381 (CD3B376 Fab in bivalent IgG1-AAS antibody) (antibody, V domains shown)", "VH": "QVQLQQSGPRLVRPSQTLSLTCAISGDSVFNNNAAWSWIRQSPSRGLEWLGRTYYRSKWLYDYAVSVKSRITVNPDTSRNQFTLQLNSVTPEDTALYYCARGYSSSFDYWGQGTLVTVSS", "VL": "QSALTQPASVSGSPGQSITISCTGTSSNIGTYKFVSWYQQHPDKAPKVLLYEVSKRPSGVSSRFSGSKSGNTASLTISGLQAEDQADYHCVSYAGSGTLLFGGGTKLTVL"}, "B3": {"name": "BCMB519 (parental anti-BCMA binder, tested as scFv) (scFv, V domains shown)", "VH": "not shown", "VL": "EIVLTQSPGTLSLSPGERATLSCRASQSISSSFLTWYQQKPGQAPRLLIYGASSRATGIPDRFSGGGSGTDFTLTISRLEPEDFAVYYCQHYGSSPMYTFGQGTKLEIK", "notes": "Tested 'as scFv'; also called BCMA lead"}, "B4": {"name": "Teclistamab (BCMA×CD3 bispecific antibody) (bispecific antibody)", "chain 1": "not shown", "chain 2": "SYVLTQPPSVSVAPGQTARITCGGNNIGSKSVHWYQQPPGQAPVVVVYDDSDRPSGIPERFSGSNSGNTATLTISRVEAGDEAVYYCQVWDSSSDHVVFGGGTKLTVLGQPKAAPSVTLFPPSSEELQANKATLVCLISDFYPGAVTVAWKGDSSPVKAGVETTTPSKQSNNKYAASSYLSLTPEQWKSHRSYSCQVTHEGSTVEKTVAPTECS", "chain 3": "EVQLVESGGGLVQPGGSLRLSCAASGFTFNTYAMNWVRQAPGKGLEWVARIRSKYNNYATYYAASVKGRFTISRDDSKNSLYLQMNSLKTEDTAVYYCARHGNFGNSYVSWFAYWGQGTLVTVSSASTKGPSVFPLAPCSRSTSESTAALGCLVKDYFPEPVTVSWNSGALTSGVHTFPAVLQSSGLYSLSSVVTVPSSSLGTKTYTCNVDHKPSNTKVDKRVESKYGPPCPPCPAPEAAGGPSVFLFPPKPKDTLMISRTPEVTCVVVDVSQEDPEVQFNWYVDGVEVHNAKTKPREEQFNSTYRVVSVLTVLHQDWLNGKEYKCKVSNKGLPSSIEKTISKAKGQPREPQVYTLPPSQEEMTKNQVSLTCLVKGFYPSDIAVEWESNGQPENNYKTTPPVLDSDGSFLLYSKLTVDKSRWQEGNVFSCSVMHEALHNHYTQKSLSLSLGK", "chain 4": "QTVVTQEPSLTVSPGGTVTLTCRSSTGAVTTSNYANWVQQKPGQAPRGLIGGTNKRAPGTPARFSGSLLGGKAALTLSGVQPEDEAEYYCALWYSNLWVFGGGTKLTVLGQPKAAPSVTLFPPSSEELQANKATLVCLISDFYPGAVTVAWKADSSPVKAGVETTTPSKQSNNKYAASSYLSLTPEQWKSHRSYSCQVTHEGSTVEKTVAPTECS"}, "B5": {"name": "Talquetamab (GPRC5D×CD3 bispecific antibody) (bispecific antibody)", "chain 1": "not shown", "chain 2": "DIQMTQSPSSLSASVGDRVTITCKASQNVATHVGWYQQKPGKAPKRLIYSASYRYSGVPSRFSGSGSGTEFTLTISNLQPEDFATYYCQQYNRYPYTFGQGTKLEIKRTVAAPSVFIFPPSDEQLKSGTASVVCLLNNFYPREAKVQWKVDNALQSGNSQESVTEQDSKDSTYSLSSTLTLSKADYEKHKVYACEVTHQGLSSPVTKSFNRGEC", "chain 3": "B4 chain 3", "chain 4": "B4 chain 4"}},
  "key": {"[1]": {"molecular_target": "T1, human GPRC5D (G-protein coupled receptor family C group 5 member D) on cells (human, UniProt Q9NZD1 1-345)", "T1 construct": "Target on H929 or MM.1R BCMA knockout cells, K562 cells expressing human GPRC5D and HEK293 cells of the cell microarray", "T1 sequence (Q9NZD1 whole entry)": "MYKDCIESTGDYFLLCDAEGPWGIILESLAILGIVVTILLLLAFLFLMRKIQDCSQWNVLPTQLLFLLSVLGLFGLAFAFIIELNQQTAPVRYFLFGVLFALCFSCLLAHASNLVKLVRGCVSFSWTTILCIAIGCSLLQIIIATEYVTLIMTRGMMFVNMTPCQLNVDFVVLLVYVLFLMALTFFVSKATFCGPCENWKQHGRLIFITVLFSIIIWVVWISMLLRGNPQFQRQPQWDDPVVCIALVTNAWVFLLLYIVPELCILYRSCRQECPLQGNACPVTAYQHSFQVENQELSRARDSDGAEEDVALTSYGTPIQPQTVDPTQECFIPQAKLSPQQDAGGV", "assay": "cell binding, H929 and MM.1R cells; lower end of the range over H929 and MM.1R cells"}, "[2]": {"molecular_target": "T1, human GPRC5D (G-protein coupled …)", "assay": "cell binding, H929 and MM.1R cells"}, "[3]": {"molecular_target": "T2, human CD3 (CD3ε of the TCR/CD3 complex) on primary human pan T cells (human, UniProt P07766 23-207)", "T2 construct": "whole, on cells; On T cells CD3ε stands in the whole TCR/CD3 complex", "T2 sequence (P07766 23-207, one chain of several)": "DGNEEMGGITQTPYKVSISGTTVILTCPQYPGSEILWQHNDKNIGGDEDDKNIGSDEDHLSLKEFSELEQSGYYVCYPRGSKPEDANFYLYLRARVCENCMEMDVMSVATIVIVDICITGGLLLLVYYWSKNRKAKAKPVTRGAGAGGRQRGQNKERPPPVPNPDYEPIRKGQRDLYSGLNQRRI", "assay": "flow cytometry on T cells of donor D327645, with curve extrapolation", "experimental": "(§1) Flow cytometry was used to evaluate the CD3 arm (i.e., CD3B376) binding of BGCB491 to CD3⁺ pan T cells from 7 different healthy human. Cell-based EC₅₀ for CD3B376 could not be determined due to lack of saturation kinetics at 1 hour (FIG. 26). Bioinformatic extrapolation was performed (FIG. 27) using the CD3B376×Null control antibody (i.e., GCDB381) molecule, which saturates within 2 μM top concentration dose-response to constrain the top of the non-linear regression curve to generate a full curve that enables estimation of ECₓ values (Table 21)."}, "[4]": {"molecular_target": "T2, human CD3 (CD3ε of the TCR/CD3 complex) …", "assay": "flow cytometry on T cells of donor D203727, with curve extrapolation", "experimental": "as §1"}, "[5]": {"molecular_target": "T2, human CD3 (CD3ε of the TCR/CD3 complex) …", "assay": "flow cytometry on T cells of donor D316144, with curve extrapolation", "experimental": "as §1"}, "[6]": {"molecular_target": "T3, cynomolgus monkey CD3 on peripheral blood mononuclear cells (cynomolgus monkey, UniProt Q95LI5 22-198)", "T3 construct": "whole, on cells; also called cyno CD3", "T3 sequence (Q95LI5 22-198)": "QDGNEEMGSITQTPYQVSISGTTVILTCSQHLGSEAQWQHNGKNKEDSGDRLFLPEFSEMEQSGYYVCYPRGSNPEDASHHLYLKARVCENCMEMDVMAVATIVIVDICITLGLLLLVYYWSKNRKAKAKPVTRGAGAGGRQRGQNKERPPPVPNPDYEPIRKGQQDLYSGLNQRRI", "assay": "flow cytometry, cynomolgus monkey PBMCs", "experimental": "The CD3-binding arm (i.e., CD3B376) binds to cynomolgus monkey CD3. Briefly, binding was measured by flow cytometry after incubating human and cynomolgus monkey peripheral blood mononuclear cells (PBMCs) with GCDB381 (i.e., CD3B376 Fab in bivalent IgG1-AAS antibody), CD3B891 (i.e., CD3B376×Null, IgG1-AAS bispecific antibody), or null control."}, "[7]": {"molecular_target": "T4, human BCMA (B cell maturation antigen, TNFRSF17) on cells (human, UniProt Q02223 1-184)", "T4 construct": "whole, on cells; Target on H929 or MM.1R GPRC5D knockout cells, K562 cells expressing human BCMA, HEK293 cells of the cell microarray, and BCMA-only lymphoma lines; also called CD269; surface BCMA", "T4 sequence (looked up)": "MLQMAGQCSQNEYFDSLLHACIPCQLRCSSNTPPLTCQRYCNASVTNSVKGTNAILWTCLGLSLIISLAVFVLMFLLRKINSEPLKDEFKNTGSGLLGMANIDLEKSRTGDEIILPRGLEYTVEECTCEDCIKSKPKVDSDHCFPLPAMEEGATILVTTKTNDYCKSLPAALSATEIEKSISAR", "assay": "cell binding, H929 and MM.1R cells"}, "[8]": {"molecular_target": "T4, human BCMA (B cell maturation antigen, …)", "assay": "cell binding, H929 and MM.1R cells", "remark": "listed apart in the source"}, "[9]": {"molecular_target": "T5, BCMW37 (recombinant human BCMA antigen) (human, UniProt Q02223 1-54, limits assumed)", "T5 construct": "also called BCMA BCMW37 chain; human BCMA (SPR antigen)", "T5 sequence (looked up)": "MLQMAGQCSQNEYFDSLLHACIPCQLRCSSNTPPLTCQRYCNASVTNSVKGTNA", "assay": "SPR; antigen BCMW37; parental BCMA binder as scFv"}, "[10]": {"molecular_target": "T5, BCMW37 (recombinant human BCMA antigen)", "assay": "SPR"}, "[11]": {"molecular_target": "T4, human BCMA (B cell maturation antigen, …)", "assay": "cell-based or functional assay"}, "[12]": {"molecular_target": "T1, human GPRC5D (G-protein coupled …)", "assay": "cell-based or functional assay"}},
  "note": "Like-named read-outs stand apart in the source and are kept apart here.",
  "data": [
    {"binder": "B1", "values": [
      {"measurement": "EC50", "setting": "[1]", "value": "6 to 24", "unit": "nM"},
      {"measurement": "EC50", "setting": "[2]", "value": "6 to 24", "unit": "nM"}
    ]},
    {"binder": "B2", "values": [
      {"measurement": "EC50 (read off the curve)", "setting": "[3]", "value": "~70", "unit": "nM"},
      {"measurement": "EC50 (read off the curve)", "setting": "[4]", "value": "~80", "unit": "nM"},
      {"measurement": "EC50 (read off the curve)", "setting": "[5]", "value": "~80", "unit": "nM"},
      {"measurement": "binding result", "setting": "[6]", "value": "binds"}
    ]},
    {"binder": "B3", "values": [
      {"measurement": "EC50", "setting": "[7]", "value": "2.3 to 3.2", "unit": "nM"},
      {"measurement": "EC50", "setting": "[8]", "value": "2.3 to 3.2", "unit": "nM"},
      {"measurement": "Kd", "setting": "[9]", "value": 0.28, "unit": "nM"},
      {"measurement": "Kd", "setting": "[10]", "value": 0.28, "unit": "nM"}
    ]},
    {"binder": "B4", "values": [
      {"measurement": "CD3 T-cell activation EC50, H929-GPRC5D-KO", "setting": "[11]", "value": 0.253, "unit": "nM"},
      {"measurement": "CD3 T-cell activation EC50, H929-WT", "setting": "[11]", "value": 0.334, "unit": "nM"},
      {"measurement": "Cytotoxicity EC50, H929-GPRC5D-KO", "setting": "[11]", "value": 0.198, "unit": "nM"},
      {"measurement": "Cytotoxicity EC50, H929-WT", "setting": "[11]", "value": 0.275, "unit": "nM"}
    ]},
    {"binder": "B5", "values": [
      {"measurement": "CD3 T-cell activation EC50, H929-BCMA-KO", "setting": "[12]", "value": 0.633, "unit": "nM"},
      {"measurement": "CD3 T-cell activation EC50, H929-WT", "setting": "[12]", "value": 0.233, "unit": "nM"},
      {"measurement": "Cytotoxicity EC50, H929-BCMA-KO", "setting": "[12]", "value": 0.761, "unit": "nM"},
      {"measurement": "Cytotoxicity EC50, H929-WT", "setting": "[12]", "value": 0.243, "unit": "nM"}
    ]}
  ]
}
